Results on 2 molecules are retold here after US7550425B2, “Diuretic peptide conjugates” (Zealand Pharma A/S, priority 2000, dated 2009).

Peptide text beside a SMILES is read from it.

Test [1] has as its target T1, hORL1 receptor (Homo sapiens, UniProt P41146). Briefly: Binding to human ORL1 receptor expressed in CHO cells. More on the design: expressed in transfected cells; host or cells: CHO.
For test [2], the target named is T1, hORL1 receptor. The test can be described thus: Efficacy: inhibition of forskolin-induced cAMP formation, hORL1 in CHO cells. More on the design: expressed in transfected cells; host or cells: CHO. It is filed as cell-based. An excerpt: The ORL1 receptor is negatively coupled to cAMP and thus the effect of ORL1 agonists are detected as an inhibition of forskolin-incuced cAMP formation. Six compounds of the invention have been tested for efficacy on hORL1 receptor expressed in CHO cells.

The target in test [3] is T2, human ORL1 receptor (human, UniProt P41146 1-370).
T2 construct: whole, on cells; also called hORL1 receptor; human nociceptin receptor
T2 sequence (P41146 whole entry): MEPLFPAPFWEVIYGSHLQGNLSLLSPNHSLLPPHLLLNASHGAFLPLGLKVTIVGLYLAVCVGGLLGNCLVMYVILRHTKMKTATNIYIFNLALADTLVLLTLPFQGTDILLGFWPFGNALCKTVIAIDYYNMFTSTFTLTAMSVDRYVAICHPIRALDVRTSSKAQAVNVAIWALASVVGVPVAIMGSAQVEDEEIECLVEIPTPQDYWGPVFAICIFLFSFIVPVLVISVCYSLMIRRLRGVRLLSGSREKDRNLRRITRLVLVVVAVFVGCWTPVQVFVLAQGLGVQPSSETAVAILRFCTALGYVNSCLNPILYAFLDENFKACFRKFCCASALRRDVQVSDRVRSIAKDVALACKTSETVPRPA
Briefly: binding to hORL1 receptor expressed in CHO cells, one experiment.

Test [4] deals with T2, human ORL1 receptor. The test can be described thus: cell-based or functional assay.
Test [5] concerns the target T2, human ORL1 receptor. The test can be described thus: displacement of [3H]-labeled nociceptin, HEK293 cells transfected with the human ORL1 receptor.
Test [6] addresses T2, human ORL1 receptor. Briefly: cell-based or functional assay. This is another data set of the same source.

T1 sequence (P41146 whole entry): as above

At hORL1 receptor [1], `CC(=O)N[C@H](CCCNC(=N)N)C(=O)N[C@H](Cc1ccc(O)cc1)C(=O)N[C@H](Cc1ccc(O)cc1)C(=O)N[C@H](CCCNC(=N)N)C(=O)N[C@H](Cc1c[nH]c2ccccc12)C(=O)N[C@H](CCCCN)C(=O)N[C@H](CCCCN)C(=O)N[C@H](CCCCN)C(=O)N[C@H](CCCCN)C(=O)N[C@H](CCCCN)C(=O)N[C@H](CCCCN)C(=O)N[C@H](CCCCN)C(N)=O` [Compound 8, Ac-RYYRWKKKKKKK-NH2 (all D)] (HELM PEPTIDE1{[ac].[dR].[dY].[dY].[dR].[dW].[dK].[dK].[dK].[dK].[dK].[dK].[dK].[am]}$$$$V2.0) came in with an IC50 of 78 nM. The same molecule gave an EC50 at hORL1 receptor [2] of 59 nM.

B1: Compound 1 Ac-Arg-Tyr-Tyr-Arg-Trp-Lys-Lys-Lys-Lys-Lys-Lys-Lys-NH2 (peptide)
peptide: Ac-RYYRWKKKKKKK-NH2
modifications: also: trifluoroacetate salt
notes: Synthetic peptide conjugate; the primary product is the trifluoroacetate salt; also called Compound I
B1 yielded a half-maximal inhibitory concentration (IC50) with human ORL1 receptor [3] of 0.32 nM. Besides, the “Efficacy EC50 (nM), inhibition of forskolin-induced cAMP formation” value with human ORL1 receptor [4] came out at 0.58 nM. This molecule also displayed a Ki with human ORL1 receptor [5] of 0.26 nM. Further, in the test with human ORL1 receptor [6], the “inhibition of forskoline-induced formation of cAMP, EC50” value was 0.54 nM and the “inhibition of forskoline-induced formation of cAMP, relative maximum relative to nociceptin” value was found to be 92%.
